Reference: publication PMC9482650, “Quantitative fragmentomics allow affinity mapping of interactomes” (Nature Communications, 2022)

What was measured:
Experiment in all cases: holdup assay
Design in all cases: key: below the threshold = too weak to quantify, mostly under pKd 3.1 to 4
FRMPD3, Q5JV73 = target: FRMPD3, Q5JV73
SYNJ2BP, P57105 = target: T1, SYNJ2BP, P57105
T1 sequence (P57105 8-110, limits assumed, looked up): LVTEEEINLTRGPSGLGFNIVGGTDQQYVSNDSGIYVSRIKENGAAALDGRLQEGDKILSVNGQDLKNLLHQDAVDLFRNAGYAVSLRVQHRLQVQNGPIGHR

PDZD2_2, O15018 = target: T2, PDZD2_2, O15018
T2 sequence (O15018 329-429, limits assumed, looked up): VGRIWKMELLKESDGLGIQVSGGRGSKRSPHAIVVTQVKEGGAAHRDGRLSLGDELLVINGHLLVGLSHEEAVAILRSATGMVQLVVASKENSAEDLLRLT

SCRIB_1, Q14160 = target: SCRIB_1, Q14160
GRIP2_6, Q9C0E4 = target: GRIP2_6, Q9C0E4
MAGI3_2, Q5TCQ9 = target: MAGI3_2, Q5TCQ9
PARD3_3, Q8TEW0 = target: PARD3_3, Q8TEW0
GRIP1_4, Q9Y3R0 = target: T3, GRIP1_4, Q9Y3R0
T3 sequence (Q9Y3R0 467-571, limits assumed, looked up): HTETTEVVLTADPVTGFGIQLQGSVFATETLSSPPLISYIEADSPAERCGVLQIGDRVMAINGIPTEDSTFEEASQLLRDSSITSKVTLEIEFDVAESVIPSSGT

GRIP2_4, Q9C0E4 = target: GRIP2_4, Q9C0E4
MAGI1_1, Q96QZ7 = target: MAGI1_1, Q96QZ7
PTPN3, P26045 = target: PTPN3, P26045
SNX27, Q96L92 = target: SNX27, Q96L92
MAST2, Q6P0Q8 = target: MAST2, Q6P0Q8
TJP2_1, Q9UDY2 = target: TJP2_1, Q9UDY2
DLG3_1, Q92796 = target: T4, DLG3_1, Q92796
T4 sequence (Q92796 125-227, limits assumed, looked up): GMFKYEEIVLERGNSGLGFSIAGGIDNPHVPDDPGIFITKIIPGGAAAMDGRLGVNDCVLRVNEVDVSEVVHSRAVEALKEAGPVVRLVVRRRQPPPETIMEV

NHERF4_4, Q86UT5 = target: NHERF4_4, Q86UT5
LRRC7, Q96NW7 = target: T5, LRRC7, Q96NW7
T5 sequence (Q96NW7 1440-1537, limits assumed, looked up): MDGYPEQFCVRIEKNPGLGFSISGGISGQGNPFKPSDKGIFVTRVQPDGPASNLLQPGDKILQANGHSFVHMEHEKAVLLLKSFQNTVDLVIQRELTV

LNX2_3, Q8N448 = target: T6, LNX2_3, Q8N448
T6 sequence (Q8N448 463-564, limits assumed, looked up): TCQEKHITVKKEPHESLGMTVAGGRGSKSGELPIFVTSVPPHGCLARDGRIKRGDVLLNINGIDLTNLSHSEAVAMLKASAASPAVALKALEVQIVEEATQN

LNX1_2, Q8TBB1 = target: LNX1_2, Q8TBB1
DFNB31_1, Q9P202 = target: T7, DFNB31_1, Q9P202
T7 sequence (Q9P202 135-233, limits assumed, looked up): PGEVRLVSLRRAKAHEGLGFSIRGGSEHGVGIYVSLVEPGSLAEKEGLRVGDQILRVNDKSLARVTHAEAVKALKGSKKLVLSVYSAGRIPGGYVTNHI

IL16_1, Q14005 = target: IL16_1, Q14005
IL16_4, Q14005 = target: IL16_4, Q14005
APBA3_1, O96018 = target: T8, APBA3_1, O96018
T8 sequence (O96018 389-490, limits assumed, looked up): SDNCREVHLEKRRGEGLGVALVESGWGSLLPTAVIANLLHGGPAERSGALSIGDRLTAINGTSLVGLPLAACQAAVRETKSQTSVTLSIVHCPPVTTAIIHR

HTRA3, P83110 = target: T9, HTRA3, P83110
T9 sequence (P83110 354-453, limits assumed, looked up): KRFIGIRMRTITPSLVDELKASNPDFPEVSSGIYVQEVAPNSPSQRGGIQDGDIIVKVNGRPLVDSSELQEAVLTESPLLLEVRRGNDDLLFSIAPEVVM

GRID2IP_2, A4D2P6 = target: GRID2IP_2, A4D2P6
ARHGEF11, O15085 = target: T10, ARHGEF11, O15085
T10 sequence (O15085 42-136, limits assumed, looked up): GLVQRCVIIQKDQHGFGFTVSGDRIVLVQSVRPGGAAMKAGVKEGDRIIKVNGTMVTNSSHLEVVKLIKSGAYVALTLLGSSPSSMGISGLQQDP

DLG4_2, P78352 = target: DLG4_2, P78352
[1] = plain residues with an end cap or a label only (N-terminal biotin on a linker: ttds)
[2] = plain residues with an end cap or a label only (N-terminal biotin on a linker: ahx)

Chain of IL16_4, Q14005 (Q14005 1229-1329): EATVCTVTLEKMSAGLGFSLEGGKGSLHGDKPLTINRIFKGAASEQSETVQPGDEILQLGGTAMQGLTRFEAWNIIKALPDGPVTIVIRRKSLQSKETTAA
Chain of FRMPD3, Q5JV73 (Q5JV73 12-100): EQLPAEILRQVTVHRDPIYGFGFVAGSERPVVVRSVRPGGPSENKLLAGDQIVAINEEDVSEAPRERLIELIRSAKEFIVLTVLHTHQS
Chain of PARD3_3, Q8TEW0 (Q8TEW0 582-685): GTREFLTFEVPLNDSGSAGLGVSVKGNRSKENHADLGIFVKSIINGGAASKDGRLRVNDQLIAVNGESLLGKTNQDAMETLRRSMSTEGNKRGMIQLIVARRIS
Chain of NHERF4_4, Q86UT5 (Q86UT5 464-550): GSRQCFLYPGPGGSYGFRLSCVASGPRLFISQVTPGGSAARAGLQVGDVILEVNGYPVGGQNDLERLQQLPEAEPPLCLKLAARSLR
Chain of GRIP2_4, Q9C0E4 (Q9C0E4 446-548): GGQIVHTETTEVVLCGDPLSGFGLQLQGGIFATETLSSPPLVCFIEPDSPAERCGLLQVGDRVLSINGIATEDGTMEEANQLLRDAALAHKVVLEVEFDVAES
Chain of SCRIB_1, Q14160 (Q14160 718-814): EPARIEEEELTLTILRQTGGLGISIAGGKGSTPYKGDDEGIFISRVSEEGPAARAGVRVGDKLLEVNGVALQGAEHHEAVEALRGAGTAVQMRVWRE
Chain of IL16_1, Q14005 (Q14005 210-306): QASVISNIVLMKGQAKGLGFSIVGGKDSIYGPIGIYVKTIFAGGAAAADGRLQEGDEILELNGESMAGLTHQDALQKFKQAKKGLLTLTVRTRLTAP
Chain of TJP2_1, Q9UDY2 (Q9UDY2 24-128): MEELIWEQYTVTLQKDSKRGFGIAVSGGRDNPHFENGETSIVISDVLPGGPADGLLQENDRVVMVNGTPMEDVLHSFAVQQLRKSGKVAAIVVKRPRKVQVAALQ
Chain of MAGI1_1, Q96QZ7 (Q96QZ7 1-106): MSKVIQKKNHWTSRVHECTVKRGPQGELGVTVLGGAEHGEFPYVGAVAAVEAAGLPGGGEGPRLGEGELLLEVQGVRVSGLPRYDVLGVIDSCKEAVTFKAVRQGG
Chain of MAGI3_2, Q5TCQ9 (Q5TCQ9 398-503): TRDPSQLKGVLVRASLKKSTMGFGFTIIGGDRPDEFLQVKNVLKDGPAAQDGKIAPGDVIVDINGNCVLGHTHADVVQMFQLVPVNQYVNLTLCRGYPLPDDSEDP
Chain of LNX1_2, Q8TBB1 (Q8TBB1 371-470): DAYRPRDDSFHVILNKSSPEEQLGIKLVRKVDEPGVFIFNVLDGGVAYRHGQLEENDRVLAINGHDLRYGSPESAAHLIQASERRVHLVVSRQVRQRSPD
Chain of PTPN3, P26045 (P26045 505-587): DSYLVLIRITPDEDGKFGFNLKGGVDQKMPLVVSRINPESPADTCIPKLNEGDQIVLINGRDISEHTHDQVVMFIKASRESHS
Chain of DLG4_2, P78352 (P78352 155-259): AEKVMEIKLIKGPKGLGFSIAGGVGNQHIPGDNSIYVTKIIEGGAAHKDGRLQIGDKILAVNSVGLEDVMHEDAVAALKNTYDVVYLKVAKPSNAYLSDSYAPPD
Chain of GRIP2_6, Q9C0E4 (Q9C0E4 648-740): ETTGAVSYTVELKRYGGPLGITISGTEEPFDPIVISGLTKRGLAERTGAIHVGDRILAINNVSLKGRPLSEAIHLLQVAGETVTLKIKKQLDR
Chain of MAST2, Q6P0Q8 (Q6P0Q8 1099-1202): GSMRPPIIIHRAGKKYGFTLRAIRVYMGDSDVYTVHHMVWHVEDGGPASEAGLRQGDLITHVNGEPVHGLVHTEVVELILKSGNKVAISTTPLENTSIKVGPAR
Chain of GRID2IP_2, A4D2P6 (A4D2P6 272-370): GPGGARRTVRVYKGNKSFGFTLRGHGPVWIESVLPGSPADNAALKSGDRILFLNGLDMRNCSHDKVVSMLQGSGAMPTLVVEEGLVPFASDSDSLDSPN

B1: MAP2K2, P36507 (peptide)
chain: QPGTPTRTAV
- pKd (FRMPD3, Q5JV73; [1]): below the threshold
- pKd (SYNJ2BP, P57105; [1]): below the threshold
- pKd (PDZD2_2, O15018; [1]): 3.79
- pKd (SCRIB_1, Q14160; [1]): below the threshold
- pKd (GRIP2_6, Q9C0E4; [1]): below the threshold
- pKd (MAGI3_2, Q5TCQ9; [1]): 3.84
- pKd (PARD3_3, Q8TEW0; [1]): 3.54
- pKd (GRIP1_4, Q9Y3R0; [1]): below the threshold
- pKd (GRIP2_4, Q9C0E4; [1]): below the threshold
- pKd (MAGI1_1, Q96QZ7; [1]): below the threshold
- pKd (PTPN3, P26045; [1]): below the threshold
- pKd (SNX27, Q96L92; [1]): below the threshold
- pKd (MAST2, Q6P0Q8; [1]): 4.34
- pKd (TJP2_1, Q9UDY2; [1]): 3.71
- pKd (DLG3_1, Q92796; [1]): below the threshold
- pKd (NHERF4_4, Q86UT5; [1]): below the threshold
- pKd (LRRC7, Q96NW7; [1]): below the threshold
- pKd (LNX2_3, Q8N448; [1]): below the threshold
- pKd (LNX1_2, Q8TBB1; [1]): 3.61
- pKd (DFNB31_1, Q9P202; [1]): below the threshold
- pKd (IL16_1, Q14005; [1]): below the threshold
- pKd (IL16_4, Q14005; [1]): below the threshold
- pKd (APBA3_1, O96018; [1]): below the threshold
- pKd (HTRA3, P83110; [1]): 3.5
- pKd (GRID2IP_2, A4D2P6; [1]): 4.27
- pKd (ARHGEF11, O15085; [1]): below the threshold
- pKd (DLG4_2, P78352; [1]): 4.12

B2: RAPGEF2, Q9Y4G8 (peptide)
chain: EDEDEQVSAV
- pKd (FRMPD3, Q5JV73; [2]): below the threshold
- pKd (SYNJ2BP, P57105; [2]): 3.49
- pKd (PDZD2_2, O15018; [2]): 5.72
- pKd (SCRIB_1, Q14160; [2]): below the threshold
- pKd (GRIP2_6, Q9C0E4; [2]): below the threshold
- pKd (MAGI3_2, Q5TCQ9; [2]): below the threshold
- pKd (PARD3_3, Q8TEW0; [2]): 3.91
- pKd (GRIP1_4, Q9Y3R0; [2]): below the threshold
- pKd (GRIP2_4, Q9C0E4; [2]): below the threshold
- pKd (MAGI1_1, Q96QZ7; [2]): below the threshold
- pKd (PTPN3, P26045; [2]): 4.39
- pKd (SNX27, Q96L92; [2]): 5.32
- pKd (MAST2, Q6P0Q8; [2]): 4.92
- pKd (TJP2_1, Q9UDY2; [2]): below the threshold
- pKd (DLG3_1, Q92796; [2]): below the threshold
- pKd (NHERF4_4, Q86UT5; [2]): below the threshold
- pKd (LRRC7, Q96NW7; [2]): below the threshold
- pKd (LNX2_3, Q8N448; [2]): below the threshold
- pKd (LNX1_2, Q8TBB1; [2]): below the threshold
- pKd (DFNB31_1, Q9P202; [2]): below the threshold
- pKd (IL16_1, Q14005; [2]): 4.17
- pKd (IL16_4, Q14005; [2]): below the threshold
- pKd (APBA3_1, O96018; [2]): below the threshold
- pKd (HTRA3, P83110; [2]): below the threshold
- pKd (GRID2IP_2, A4D2P6; [2]): 4.28
- pKd (ARHGEF11, O15085; [2]): 4.1
- pKd (DLG4_2, P78352; [2]): 3.95

B3: NRXN1, Q9ULB1 (peptide)
chain: KKNKDKEYYV
- pKd (FRMPD3, Q5JV73; [2]): 3.5
- pKd (SYNJ2BP, P57105; [2]): below the threshold
- pKd (PDZD2_2, O15018; [2]): 3.99
- pKd (SCRIB_1, Q14160; [2]): below the threshold
- pKd (GRIP2_6, Q9C0E4; [2]): 3.91
- pKd (MAGI3_2, Q5TCQ9; [2]): 4.6
- pKd (PARD3_3, Q8TEW0; [2]): 4.29
- pKd (GRIP1_4, Q9Y3R0; [2]): below the threshold
- pKd (GRIP2_4, Q9C0E4; [2]): below the threshold
- pKd (MAGI1_1, Q96QZ7; [2]): below the threshold
- pKd (PTPN3, P26045; [2]): below the threshold
- pKd (SNX27, Q96L92; [2]): below the threshold
- pKd (MAST2, Q6P0Q8; [2]): below the threshold
- pKd (TJP2_1, Q9UDY2; [2]): below the threshold
- pKd (DLG3_1, Q92796; [2]): below the threshold
- pKd (NHERF4_4, Q86UT5; [2]): below the threshold
- pKd (LRRC7, Q96NW7; [2]): below the threshold
- pKd (LNX2_3, Q8N448; [2]): below the threshold
- pKd (LNX1_2, Q8TBB1; [2]): 3.58
- pKd (DFNB31_1, Q9P202; [2]): below the threshold
- pKd (IL16_1, Q14005; [2]): below the threshold
- pKd (IL16_4, Q14005; [2]): below the threshold
- pKd (APBA3_1, O96018; [2]): below the threshold
- pKd (HTRA3, P83110; [2]): 4.2
- pKd (GRID2IP_2, A4D2P6; [2]): below the threshold
- pKd (ARHGEF11, O15085; [2]): below the threshold
- pKd (DLG4_2, P78352; [2]): below the threshold

B4: RPS6KA1, Q15418 (peptide)
chain: RRVRKLPSTTL
- pKd (FRMPD3, Q5JV73; [1]): below the threshold
- pKd (SYNJ2BP, P57105; [1]): 3.82
- pKd (PDZD2_2, O15018; [1]): 3.55
- pKd (SCRIB_1, Q14160; [1]): 3.48
- pKd (GRIP2_6, Q9C0E4; [1]): below the threshold
- pKd (MAGI3_2, Q5TCQ9; [1]): 4.23
- pKd (PARD3_3, Q8TEW0; [1]): 3.71
- pKd (GRIP1_4, Q9Y3R0; [1]): below the threshold
- pKd (GRIP2_4, Q9C0E4; [1]): below the threshold
- pKd (MAGI1_1, Q96QZ7; [1]): 3.64
- pKd (PTPN3, P26045; [1]): 3.93
- pKd (SNX27, Q96L92; [1]): 3.5
- pKd (MAST2, Q6P0Q8; [1]): 5.37
- pKd (TJP2_1, Q9UDY2; [1]): below the threshold
- pKd (DLG3_1, Q92796; [1]): below the threshold
- pKd (NHERF4_4, Q86UT5; [1]): 3.49
- pKd (LRRC7, Q96NW7; [1]): 3.55
- pKd (LNX2_3, Q8N448; [1]): 3.71
- pKd (LNX1_2, Q8TBB1; [1]): 3.52
- pKd (DFNB31_1, Q9P202; [1]): 3.53
- pKd (IL16_1, Q14005; [1]): below the threshold
- pKd (IL16_4, Q14005; [1]): below the threshold
- pKd (APBA3_1, O96018; [1]): below the threshold
- pKd (HTRA3, P83110; [1]): below the threshold
- pKd (GRID2IP_2, A4D2P6; [1]): 5.05
- pKd (ARHGEF11, O15085; [1]): 4.44
- pKd (DLG4_2, P78352; [1]): below the threshold
